We go through 1 molecule from patent US20160257760A1 (OXFORD BIOTHERAPEUTICS, published 2016).

Assay in all cases: peptide microarray, 1 µg/mL LY75_A1, anti-human IgG Alexa 647
Assay [1] has as its target T1, TSCSERHF
T1 peptide: TSCSERHF
Protocol: (§1) The chip comprised three panels such that the experiment was performed in triplicate. […] The binding assay was performed under the following conditions:—The microarray comprising the contiguous peptides in triplicate was washed with 1 mL of binding buffer at 4° C. for 20 min. […] The array was again washed with 0.5 mL of washing buffer at 4° C. for 30 min.

The target of assay [2] is T2, CQKYSEVK
T2 peptide: CQKYSEVK
Protocol: as §1

The target in assay [3] is T3, FVSLCQKY
T3 peptide: FVSLCQKY
Protocol: as §1

Assay [4] deals with T4, ERHFVSLC
T4 peptide: ERHFVSLC
Protocol: as §1

B1: LY75_A1 monoclonal antibody (antibody, V domains shown)
VH: EVQLVESGGGLVKPGGSLRLSCAASGFTYSNAWMSWVRQAPGKGLEWVGRIKSKTDGGTTDYAAPVQGRFTISRDDSKNTLYLQMNSLKTEDTAVYYCTIFGVVSFDYWGQGTLVTVSS
VL: DVQMTQSPSSLSASVGDRVTITCRASQSISDYLSWYQQRPGKAPNLLIYAASNLKTGVPSRFSGSGSGTDFTLTISTLQPEDFATYYCQQSYRSPWTFGQGTKVEIKR
notes: also called LY75A1 antibody; LY75_A1 antibody
Take B1: the binding result in assay [1] is “binds”; in assay [2], “no binding (tested: 1 µg/mL)”; in assay [3], “binds”; in assay [4], “no binding (tested: 1 µg/mL)”.
